In patent US6905817B1, “Ret-independent signaling pathway for GDNF” (Licestia Ltd., priority 1998, dated 2005):
Entries after “also recorded” stand apart in the source; their conditions may differ. Blank lines part the entries; values can stand above or below the molecule they belong to.

Columns and labels:
[1] = tested on: wild type mouse DRG neurons; assay: GDNF-evoked [Ca^2+]i changes, confocal microscopy with Calcium Green-1AM, wild type DRG neurons; format: cell-based; conditions: for change in [Ca^2+]i: 100 ng/ml, heat-inactivated at 98° C. for 15 min
Experimental: (§1) DRG from embryonic day 18 (E18) mice were treated with trypsin (Worthington), non-neuronal cells removed by preplating, and about 95% pure neurons cultured on poly-ornithine-laminin-coated glass coverslips in Ham's F14 medium (Imperial Laboratories) with serum substitute containing NGF, BDNF and NT-3 (all from PeproTech, 2 ng/ml if each) for at least 1 day before measurement. Neurotrophins were extensively washed out before GDNF application. GDNF was from PeproTech and donated by Cephalon, Inc. Ret-deficient mice (Schuchardt et al., 1994) were identified from heterozygote matings by the absence of kidneys and PCR-based genotyping. GFRα2-deficient mice were obtained from homozygote matings (Rossi et al., 1999).
(§2) [Ca^2+]i was measured using a Bio-Rad MRC-1024 confocal microscope equipped with an argon-krypton laser. The cells were loaded with 10 μM Calcium Green-1AM (Molecular Probes), a membrane permeable Ca^2+ dye, by 30 min incubation in serum free cell-culture media at 37 ° C. and 5 % CO2. After loading, the neurons were kept at room temperature in Dulbecco's PBS solution contained 20 mM HEPES (pH=7.4) for at least 20 min prior to the experiments. All compounds were applied to the bath by a peristaltic pump. 6 kD Heparin (Sigma) and Alexa 568 nm fluorescent dye (Molecular Probes) were loaded into the cells using Molecular Probes' pinocytotic influx loading reagent basically according to the manufacturer instructions. […] Cell injection was performed using Eppendorf microinjection system. The average intensity of fluorescence in the predefined ROI (Region Of Interest) was measured on-line using TimeCourse software from BioRad. The calibration of fluorescence traces was performed in vitro using Fmax and Fmin values obtained with the calcium calibration buffer kit (Molecular Probes). Because the calibration solutions may not reflect the intracellular environment, the experimental data are presented as delta [Ca^2+]i calculated using Kd=190 nM for Calcium Green-1.

[2] = tested on: Ret^−/− DRG neurons; assay: GDNF-evoked [Ca^2+]i changes, confocal microscopy, Ret^−/− DRG neurons; format: cell-based, mouse; conditions: for GDNF-evoked [Ca^2+]i elevation in heparin injected neurons: 6kD heparin injected, versus solvent/saline injected control neurons
Experimental: as §1, §2

[3] = tested on: GFRα2^−/− DRG neurons; assay: GDNF-evoked [Ca^2+]i changes, confocal microscopy, GFRα2^−/− DRG neurons; format: cell-based, mouse; conditions: pre-treatment 10 μM U-73122
Experimental: as §1, §2
Transgenic GFRα2 knock-out mice were produced in our laboratory. […]

[4] = biological target: T1, GFRα1 of the Ret-negative human SHEP neuroblastoma cell line (human) (UniProt P56159); assay: anti-GFRα1 immunoprecipitate from the Triton X-100 insoluble fraction of SHEP cells, Western blot with pan-Src antibodies; lane 1 min of 100 ng/ml GDNF
T1 sequence (GPI anchor, looked up): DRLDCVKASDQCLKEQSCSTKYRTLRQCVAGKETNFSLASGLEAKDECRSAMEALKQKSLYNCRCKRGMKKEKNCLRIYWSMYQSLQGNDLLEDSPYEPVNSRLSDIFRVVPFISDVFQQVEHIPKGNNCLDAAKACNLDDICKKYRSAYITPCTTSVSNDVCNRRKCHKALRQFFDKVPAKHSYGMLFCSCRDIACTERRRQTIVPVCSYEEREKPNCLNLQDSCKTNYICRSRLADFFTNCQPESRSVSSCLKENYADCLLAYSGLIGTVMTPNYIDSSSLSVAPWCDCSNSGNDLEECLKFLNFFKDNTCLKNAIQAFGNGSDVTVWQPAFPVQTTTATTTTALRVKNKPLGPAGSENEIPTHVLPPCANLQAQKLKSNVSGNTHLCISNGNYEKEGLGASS

[5] = biological target: T1, GFRα1 of the Ret-negative human SHEP neuroblastoma cell line (human); assay: anti-GFRα1 immunoprecipitate from the Triton X-100 insoluble fraction of SHEP cells, Western blot with pan-Src antibodies; lane 7 min of 100 ng/ml GDNF
[6] = biological target: T1, GFRα1 of the Ret-negative human SHEP neuroblastoma cell line (human); assay: anti-GFRα1 immunoprecipitate from the Triton X-100 insoluble fraction of SHEP cells, Western blot with pan-Src antibodies; lane 30 sec of 100 ng/ml GDNF
[7] = biological target: T1, GFRα1 of the Ret-negative human SHEP neuroblastoma cell line (human); assay: anti-GFRα1 immunoprecipitate from the Triton X-100 insoluble fraction of SHEP cells, Western blot with pan-Src antibodies; lane 0 min GDNF (reference lane)
[8] = biological target: T1, GFRα1 of the Ret-negative human SHEP neuroblastoma cell line (human)
[9] = biological target: T1, GFRα1 of the Ret-negative human SHEP neuroblastoma cell line (human); assay: cell-based or functional assay
[10] = biological target: T2, GPI-anchored GDNF family receptor α1 (GFRα1) of mouse E18 DRG neurons (mouse) (UniProt P97785); assay: cell-based or functional assay
T2 sequence (GPI anchor, looked up): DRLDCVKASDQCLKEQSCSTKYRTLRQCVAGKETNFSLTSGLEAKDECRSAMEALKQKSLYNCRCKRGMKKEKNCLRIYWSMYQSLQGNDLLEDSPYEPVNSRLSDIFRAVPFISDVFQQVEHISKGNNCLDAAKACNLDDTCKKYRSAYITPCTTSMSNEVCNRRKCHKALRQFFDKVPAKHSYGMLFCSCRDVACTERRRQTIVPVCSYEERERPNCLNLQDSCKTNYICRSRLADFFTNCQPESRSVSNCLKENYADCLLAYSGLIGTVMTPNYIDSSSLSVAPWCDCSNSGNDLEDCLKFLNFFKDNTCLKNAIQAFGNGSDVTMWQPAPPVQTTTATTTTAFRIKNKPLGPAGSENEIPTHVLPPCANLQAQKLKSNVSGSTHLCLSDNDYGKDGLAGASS

Molecule: C/C=C(/C)C(=O)O[C@H]1C(C)=C2[C@H]([C@@H]1OC(=O)CCCCCCC)[C@@](C)(OC(C)=O)C[C@H](OC(=O)CCC)[C@@]1(O)[C@H]2OC(=O)[C@@]1(C)O [thapsigargin]
change in [Ca^2+]i on application of thapsigargin ([1]; 5 μM, applied at the end of the experiments): profound elevation in [Ca^2+]i
GDNF-evoked [Ca^2+]i elevation after pre-treatment ([1]; pre-treatment 5 μM thapsigargin): abolished the effect of GDNF; also recorded: resulted in the abolishing of the effect of GDNF
change in [Ca^2+]i on thapsigargin treatment ([2]; 5 μM, end of experiments, PI-PLC pre-treated neurons): [Ca^2+]i was transiently increased

Molecule: phosphatidylinositol-specific phospholipase C [PI-PLC]
GDNF-evoked [Ca^2+]i elevation after pre-treatment ([1]; pre-treatment 1U/ml PI-PLC, GDNF 100 ng/ml): eliminates GDNF-evoked [Ca^2+]i elevation; also recorded: None of the pre-treated neurons responded
GDNF-evoked [Ca^2+]i elevation after pre-treatment ([2]; pre-treatment PI-PLC 1 U/ml for 1 hr at 37° C.): abolished the effect of GDNF; also recorded: did not affect [Ca^2+]i

Molecule: COc1ccc2c(c1)CC[C@@H]1[C@@H]2CC[C@]2(C)[C@@H](NCCCCCCN3C(=O)C=CC3=O)CC[C@@H]12 [U-73122]
GDNF-evoked [Ca^2+]i elevation after pre-treatment ([1]; pre-treatment with U-73122): resulted in abolishing of the effect of GDNF; also recorded: resulted in the abolishing of the effect of GDNF
GDNF-evoked release of Ca^2+ from internal stores after pre-treatment [3]: inhibited release of Ca^2+ from the internal stores
GDNF-evoked long-lasting [Ca^2+]i elevation / Ca^2+ release after pre-treatment ([2]; pre-treatment U-73122 (10 μM)): completely abolished; also recorded: inhibited release of Ca^2+ from the internal stores

Molecule: heparin
GDNF-evoked [Ca^2+]i elevation in heparin injected neurons [2]: did not evoke an increase in [Ca^2+]i
GDNF-evoked [Ca^2+]i elevation in heparin injected neurons ([2]; listed as Heparin): did not significantly respond to GDNF application
[Ca^2+]i response of neurons loaded by pinocytosis with heparin ([2]; heparin with Alexa dye, 100 nM GDNF or 10 μM ATP): did not respond either to 100 nM GDNF or to 10 μM ATP

fold (pan-Src band in the anti-GFRα1 immunoprecipitate, relative to 0 min) [4]: 1.5 fold
fold (pan-Src band in the anti-GFRα1 immunoprecipitate, relative to 0 min) [5]: 1.2 fold
fold (pan-Src band in the anti-GFRα1 immunoprecipitate, relative to 0 min) [6]: 1.5 fold
fold (pan-Src band in the anti-GFRα1 immunoprecipitate, relative to 0 min) [7]: 1 fold
Molecule: GFRα1-coupled Src-type kinase of SHEP cells, co-migrating with p62Yes (from UniProt P07947 2-543) (enzyme)

in vitro kinase activity co-precipitated with anti-GFRα1 antibodies from the Triton X-100 insoluble fraction of SHEP cells, fold relative to untreated cells; lane 0 min (reference lane) [8]: 1 fold
in vitro kinase activity co-precipitated with anti-GFRα1 antibodies from the Triton X-100 insoluble fraction of SHEP cells, fold relative to untreated cells; lane 30 sec of 100 ng/ml GDNF [8]: 12 fold
in vitro kinase activity co-precipitated with anti-GFRα1 antibodies from the Triton X-100 insoluble fraction of SHEP cells, fold relative to untreated cells; lane 1 min of 100 ng/ml GDNF [8]: 10 fold
in vitro kinase activity co-precipitated with anti-GFRα1 antibodies from the Triton X-100 insoluble fraction of SHEP cells, fold relative to untreated cells; lane 7 min of 100 ng/ml GDNF [8]: 7 fold
Src-type kinase activity in co-precipitates with anti-GFRα1 antibodies from Triton X-100 insoluble fractions of SHEP cells [9]: 12 fold
[Ca^2+]i elevation in Ret^-/- DRG neurons (confocal microscopy, Calcium Green-1) (% of the neurons) [10]: 60 to 70
B1: Glial cell line-derived neurotrophic factor (GDNF) (ligand, UniProt P39905 78-211, looked up, species assumed)
Glial cell line-derived neurotrophic factor: SPDKQMAVLPRRERNRQAAAANPENSRGKGRRGQRGKNRGCVLTAIHLNVTDLGLGYETKEELIFRYCSGSCDAAETTYDKILKNLSRNRRLVSDKVGQACCRPIAFDDDLSFLDDNLVYHILRKHSAKRCGCI

B2: Heat-inactivated GDNF: GDNF heat-inactivated at 98° C. for 15 min, used as specificity control (protein, UniProt P39905 78-211, looked up)
Glial cell line-derived …: B1 Glial cell line-derived neurotrophic factor
modifications: heat-inactivated
change in [Ca^2+]i [1]: did not evoke any changes of basal [Ca^2+]i
change in [Ca^2+]i ([1]; heat-inactivated): did not evoke changes in [Ca^2+]i
change in [Ca^2+]i ([2]; prolonged application, heat-inactivated, 100 ng/ml): did not respond with [Ca^2+]i elevations
